Data reported in IntAct's records for PubMed 23455607.

Legend:
lamp2_human LAMP2 [1] = biological target: lamp2_human LAMP2 (UniProt P13473)
lamp2_rat Lamp2 = lamp2_rat Lamp2 (UniProt P17046)
lamp2_human LAMP2 [2] = biological target: lamp2_human LAMP2 (UniProt P13473); remark: listed apart in the source

Chain of lamp2_human LAMP2 (P13473 whole entry): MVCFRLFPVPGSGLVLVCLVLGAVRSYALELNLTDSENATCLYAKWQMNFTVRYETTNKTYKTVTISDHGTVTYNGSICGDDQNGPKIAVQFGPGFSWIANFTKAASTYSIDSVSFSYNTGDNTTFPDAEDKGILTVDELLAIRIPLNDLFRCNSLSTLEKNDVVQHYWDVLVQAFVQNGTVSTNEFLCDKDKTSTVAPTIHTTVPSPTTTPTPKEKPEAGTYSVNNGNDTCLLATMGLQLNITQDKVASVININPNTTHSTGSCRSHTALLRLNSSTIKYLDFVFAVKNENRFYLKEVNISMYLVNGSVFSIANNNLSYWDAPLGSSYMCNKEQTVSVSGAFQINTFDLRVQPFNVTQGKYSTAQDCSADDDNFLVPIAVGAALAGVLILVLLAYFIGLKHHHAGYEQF
Chain of lamp2_rat Lamp2 (P17046 whole entry): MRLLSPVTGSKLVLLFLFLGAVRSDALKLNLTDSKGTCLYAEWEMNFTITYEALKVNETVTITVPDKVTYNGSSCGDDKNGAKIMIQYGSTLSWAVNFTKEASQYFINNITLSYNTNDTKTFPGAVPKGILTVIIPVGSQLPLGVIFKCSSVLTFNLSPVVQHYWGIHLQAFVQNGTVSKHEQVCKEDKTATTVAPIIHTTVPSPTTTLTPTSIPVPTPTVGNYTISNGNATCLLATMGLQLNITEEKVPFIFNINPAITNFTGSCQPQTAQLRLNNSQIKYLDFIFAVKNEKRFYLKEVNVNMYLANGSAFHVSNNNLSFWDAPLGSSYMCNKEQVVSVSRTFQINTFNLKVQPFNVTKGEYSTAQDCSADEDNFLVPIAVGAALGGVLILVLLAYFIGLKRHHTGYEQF

effect of a mutation on the interaction (lamp2_human LAMP2 [1])	effect of a mutation on the interaction (lamp2_rat Lamp2)	effect of a mutation on the interaction (lamp2_human LAMP2 [2])	Substance
increasing interaction	increasing interaction	–	Leucine-rich repeat serine/threonine-protein kinase 2 (Homo sapiens), Q5S007 G2019S
–	increasing interaction	increasing interaction	Leucine-rich repeat serine/threonine-protein kinase 2 (Homo sapiens), Q5S007 R1441C
